Here are results for four molecules from article PMC8809517, “Cofactor-independent RNA editing by a synthetic S-type PPR protein”.

Common to all, as to test: high-throughput RNA pulldown from lysate on Ni-NTA beads; HRP: 50 mM Tris pH 8, 150 mM NaCl, 1 mM beta-mercaptoethanol, 50 ug/ml BSA, 3 ug/ml yeast RNA, 0.5% heparin; ITC and FP: Tris pH 8, 200 mM KCl, 5% glycerol; MST: 50 mM Tris pH 8, 200 mM NaCl, 1 mM DTT, BSA, heparin, 0.05% Tween 20
What all share (conditions): tags: N-terminal His-eGFP

Data set [1] concerns the target T1, GFP-9S library array, motif 4 ND N98G;D124M (synthetic construct, N98G;D124M).
T1 chain: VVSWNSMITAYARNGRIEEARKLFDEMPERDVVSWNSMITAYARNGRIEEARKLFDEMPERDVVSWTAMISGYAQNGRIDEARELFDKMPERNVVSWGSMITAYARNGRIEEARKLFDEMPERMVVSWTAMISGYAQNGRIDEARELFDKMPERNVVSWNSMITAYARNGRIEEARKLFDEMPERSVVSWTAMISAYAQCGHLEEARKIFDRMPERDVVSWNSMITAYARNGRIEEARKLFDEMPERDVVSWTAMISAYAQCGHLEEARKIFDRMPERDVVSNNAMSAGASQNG

Data set [2] concerns the target T2, GFP-9S library array, motif 4 ND N98F;D124N (synthetic construct, N98F;D124N).
T2 chain: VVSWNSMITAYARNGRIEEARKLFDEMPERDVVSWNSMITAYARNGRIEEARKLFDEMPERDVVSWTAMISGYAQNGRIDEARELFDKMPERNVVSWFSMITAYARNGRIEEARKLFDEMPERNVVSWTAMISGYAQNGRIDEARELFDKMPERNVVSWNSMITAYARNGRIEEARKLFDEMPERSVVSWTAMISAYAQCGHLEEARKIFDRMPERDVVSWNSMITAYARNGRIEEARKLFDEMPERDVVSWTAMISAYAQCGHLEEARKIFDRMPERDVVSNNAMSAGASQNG

Data set [3] concerns the target T3, GFP-9S library array, motif 4 ND N98Y;D124T (synthetic construct, N98Y;D124T).
T3 chain: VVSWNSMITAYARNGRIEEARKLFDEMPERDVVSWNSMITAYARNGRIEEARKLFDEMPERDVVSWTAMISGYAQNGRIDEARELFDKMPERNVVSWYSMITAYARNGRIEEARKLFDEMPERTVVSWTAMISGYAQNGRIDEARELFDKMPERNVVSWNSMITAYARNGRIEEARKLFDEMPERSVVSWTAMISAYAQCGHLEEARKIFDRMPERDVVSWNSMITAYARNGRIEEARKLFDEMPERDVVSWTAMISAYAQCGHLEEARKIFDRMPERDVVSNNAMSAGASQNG

In data set [4] the target is T4, GFP-9S library array, motif 4 ND (synthetic construct).
T4 chain: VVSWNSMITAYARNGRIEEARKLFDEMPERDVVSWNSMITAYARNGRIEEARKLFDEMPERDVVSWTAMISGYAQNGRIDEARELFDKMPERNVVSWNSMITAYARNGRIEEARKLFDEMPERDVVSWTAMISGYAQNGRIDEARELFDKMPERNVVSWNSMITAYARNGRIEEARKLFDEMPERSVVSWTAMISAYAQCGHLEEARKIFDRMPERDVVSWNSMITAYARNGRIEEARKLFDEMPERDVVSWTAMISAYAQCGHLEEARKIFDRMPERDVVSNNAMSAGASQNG

Data set [5] concerns the target T5, GFP-9S library array, motif 4 ND N98P;D124P (synthetic construct, N98P;D124P).
T5 chain: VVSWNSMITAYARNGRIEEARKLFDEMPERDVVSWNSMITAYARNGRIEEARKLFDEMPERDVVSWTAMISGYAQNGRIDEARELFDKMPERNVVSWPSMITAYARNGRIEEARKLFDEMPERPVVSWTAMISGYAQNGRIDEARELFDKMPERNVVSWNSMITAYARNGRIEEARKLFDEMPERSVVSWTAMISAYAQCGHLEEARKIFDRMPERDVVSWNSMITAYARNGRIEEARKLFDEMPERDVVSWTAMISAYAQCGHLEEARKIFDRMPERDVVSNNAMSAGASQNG

As a reminder, the Kd is the concentration at which binding is half-saturated. With AUUAUACGUGA (ssRNA) [IR-rpoA-U], the Kd in data set [1] (label: 5' IRDye 800CW) is 149 nM; in data set [2] (label: 5' IRDye 800CW), 112 nM; in data set [3] (label: 5' IRDye 800CW) it was 75 nM; in data set [4] (label: 5' IRDye 800CW), 6.27 nM; in data set [5] (label: 5' IRDye 800CW), 561 nM.
For the molecule AUUACACGUGA (ssRNA) [Cy5-rpoA], the equilibrium dissociation constant (Kd) is 57.8 nM in data set [1] (label: 5' Cy5); 81.4 nM in data set [2] (label: 5' Cy5); 96.3 nM in data set [3] (label: 5' Cy5); 19 nM in data set [4] (label: 5' Cy5); 273 nM in data set [5] (label: 5' Cy5).
On the same counts, the results for AUUAGACGUGA (ssRNA) [Cy5-rpoA-G] are 66 nM, 101 nM, 105 nM, 276 nM and 326 nM.
Consider AUUAAACGUGA (ssRNA) [IR-rpoA-A], for which the Kd in data set [1] (label: 5' IRDye 800CW) came to 94.3 nM; in data set [2] (label: 5' IRDye 800CW), 196 nM; in data set [3] (label: 5' IRDye 800CW), 158 nM; in data set [4] (label: 5' IRDye 800CW), 86.8 nM; in data set [5] (label: 5' IRDye 800CW), 1420 nM.
